The data set concerns the target T1, Suc-AEPF-pNA peptide substrate.
T1 chain: AEPF

The values below come from patent publication US20040171019.

B1: mutant PIN1 PPIase (K77Q/K82Q) (protein)
chain: GSHMGKNGQGEPARVRCSHLLVKHSQSRRPSSWRQEQITRTQEEALELINGYIQKIKSGEEDFESLASQFSDCSSAKARGDLGAFSRGQMQKPFEDASFALRTGEMSGPVFTDSGIHIILRTE
Regarding B1, the Km result is “The Km for this substrate was much higher than 100 µM ([S]<<Km)”; the “rate (rate constant k of the peptidyl-prolyl isomerase reaction)” value was “both wild type human PIN1 and mutant PIN1 PPIAse, at 0.033 nM with 100 µM Suc-AEPF-pNA, had a rate of 0.2”.
